Assay results from patent US20050163775A1, “Combination therapy for B cell disorders” (Genentech, Inc., priority 2003, published 2005).
Bridges are numbered along the chain shown (N, C = ends). Where no end group is shown, it is not given here.

Target: T1, human BAFF (residues 82-285) (human, UniProt Q9Y275 82-285)
T1 construct: Coated on plates in the ELISAs; also used biotinylated or free in solution for phage sorting; also called BAFF82-285; BLyS82-285
Test: phage display selection on BAFF

T1 sequence (Q9Y275 82-285): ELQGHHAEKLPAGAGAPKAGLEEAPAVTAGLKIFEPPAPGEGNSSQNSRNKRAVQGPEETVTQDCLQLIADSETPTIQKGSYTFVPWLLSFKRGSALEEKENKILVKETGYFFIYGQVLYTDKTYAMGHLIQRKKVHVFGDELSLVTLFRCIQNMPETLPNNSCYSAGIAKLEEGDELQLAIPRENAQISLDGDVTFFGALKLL

ECFDVLVNAWVDCAVLR (disulfide 2-13 (inferred)) [SEQ ID NO 128]: binds.

ECFDGLVNAWVDCGLLR [SEQ ID NO 129]: binds.

ECFDPLVRHWVPCRALD [SEQ ID NO 130]: binds.

ECFDDLVRHWVPCDLLT [SEQ ID NO 131]: binds.

ECFDVLVRAWVPCRALT (disulfide 2-13 (inferred)) [SEQ ID NO 132]: binds.

ECFDILVNRWVPCGALT (disulfide 2-13 (inferred)) [SEQ ID NO 133]: binds.

ECFDDLVRNWVPCALLN [SEQ ID NO 134]: binds.

ECFDPLVNAWVPCAVLH (disulfide 2-13 (inferred)) [SEQ ID NO 135]: binds.

ECFDPLVLRWVPCSALH (disulfide 2-13 (inferred)) [SEQ ID NO 136]: binds.

ECFDALVHRWVPCDLLR [SEQ ID NO 137]: binds.

ECFDPLVRDWVPCDLIH (disulfide 2-13 (inferred)) [SEQ ID NO 138]: binds.

ECFDLLVNSWVPCSVIA (disulfide 2-13 (inferred)) [SEQ ID NO 139]: binds.

ECFDTLVRAWVPCSHLT (disulfide 2-13 (inferred)) [SEQ ID NO 140]: binds.

ECFDSLVRIWVPCGLID [SEQ ID NO 141]: binds.

ECFDSLVNAWVPCHVLT (disulfide 2-13 (inferred)) [SEQ ID NO 142]: binds.

ECFDLLVRRWVPCGLLR [SEQ ID NO 75]: binds.

ECFDLLVRQWVPCERIR [SEQ ID NO 65]: binds.

ECFDLLVRRWVPCEMLG [SEQ ID NO 66]: binds.

ECFDLLVRKWVPCQVLG [SEQ ID NO 67]: binds.

ECFDLLVRTWVECSLLN [SEQ ID NO 68]: binds.

ECFDLLVRSWVPCGTLM [SEQ ID NO 69]: binds.

ECFDLLVRSWVPCHMLR [SEQ ID NO 70]: binds.

ECFDLLVRTWVPCQAIL (disulfide 2-13 (inferred)) [SEQ ID NO 71]: binds.

ECFDLLVRAWVRCDMLL [SEQ ID NO 72]: binds.

ECFDLLVRGWVPCEKLM [SEQ ID NO 73]: binds.

ECFDLLVRAWVPCWLRL [SEQ ID NO 74]: binds.

ECFDLLVRRWVDCAFLH [SEQ ID NO 76]: binds.

ECFDLLVRSWVPCSSLG [SEQ ID NO 77]: binds.

ECFDLLVRRWVPCELLV [SEQ ID NO 79]: binds.

ECFDLLVRSWVPCYSLK [SEQ ID NO 80]: binds.

ECFDLLVRQWVSCQVFA (disulfide 2-13 (inferred)) [SEQ ID NO 81]: binds.

ECFDLLVRVWVPCSRLY [SEQ ID NO 82]: binds.

ECFDLLVRQWVPCGALG [SEQ ID NO 83]: binds.

ECFDLLVRAWVPCNELR [SEQ ID NO 84]: binds.

ECFDLLVREWVPCRILQ [SEQ ID NO 85]: binds.

ECFDLLVRRWVPCSWLL [SEQ ID NO 86]: binds.

ECFDLLVRRWVPCSLVK [SEQ ID NO 87]: binds.

ECFDLLVRQWVPCRALM [SEQ ID NO 88]: binds.

ECFDLLVRAWVPCSYLS [SEQ ID NO 89]: binds.

ECFDLLVRDWVPCSLLF [SEQ ID NO 90]: binds.

ECFDLLVRSWVPCTLLS [SEQ ID NO 91]: binds.

ECFDLLVRKWVPCSTFH (disulfide 2-13 (inferred)) [SEQ ID NO 92]: binds.

ECFDLLVRGWVPCSVLQ [SEQ ID NO 93]: binds.

ECFDLLVRAWVPCSVLK [SEQ ID NO 94]: binds.

ECFDLLVRQWVSCELLS [SEQ ID NO 95]: binds.

ECFDLLVRGWVDCSLLL [SEQ ID NO 96]: binds.

ECFDILVDRWVPCAILH (disulfide 2-13 (inferred)) [SEQ ID NO 97]: binds.

ECFDRLVGHWVPCAALI (disulfide 2-13 (inferred)) [SEQ ID NO 98]: binds.

ECFDPLVARWVPCHLIN (disulfide 2-13 (inferred)) [SEQ ID NO 99]: binds.

ECFDPLVRVWVDCSILD (disulfide 2-13 (inferred)) [SEQ ID NO 100]: binds.

ECFDSLVNAWVPCSAIR (disulfide 2-13 (inferred)) [SEQ ID NO 101]: binds.

ECFDLLVNRWVDCRLLI [SEQ ID NO 102]: binds.

ECFDPLVRIWVACDRLA [SEQ ID NO 103]: binds.

ECFDPLVGRWVPCTLLH (disulfide 2-13 (inferred)) [SEQ ID NO 104]: binds.

ECFDLLVRAWVPCHLID [SEQ ID NO 105]: binds.

ECFDPLVGHWVPCSVLT (disulfide 2-13 (inferred)) [SEQ ID NO 106]: binds.

ECFDPLVNRWVDCVALH (disulfide 2-13 (inferred)) [SEQ ID NO 107]: binds.

ECFDRLVNLWVDCALLN (disulfide 2-13 (inferred)) [SEQ ID NO 108]: binds.

ECFDVLVSAWVDCARLN (disulfide 2-13 (inferred)) [SEQ ID NO 109]: binds.

ECFDSLVRLWVPCNLLR [SEQ ID NO 110]: binds.

ECFDILVNAWVPCRVIG (disulfide 2-13 (inferred)) [SEQ ID NO 112]: binds.

ECFDRLVNRWVPCNLIV (disulfide 2-13 (inferred)) [SEQ ID NO 113]: binds.
